Measured values from publication PMC2752052.

Tested on: NC(=O)c1ccc[n+]([C@@H]2O[C@H](COP(=O)([O-])OP(=O)(O)OC[C@H]3O[C@@H](n4cnc5c(N)ncnc54)[C@H](O)[C@@H]3O)[C@@H](O)[C@H]2O)c1
Assay: purified protein
Format: biochemical, Homo sapiens

In the case of CD38 (Homo sapiens), the Km is reported as 17 ± 6 µM.
